# Test results as given in US20190144537A1 (AVEO PHARMACEUTICALS, published 2019).
# B1: 28042 antibody (antibody, human IgG1, kappa, V domains shown)
# VH: EVQLLESGGGLVQPGGSLRLSCAASGFTFSDYMMSWVRQAPGKGLEWVSWIRSSGGTTLYADSVKGRFTISRDNSKNTLYLQMNSLRAEDTATYYCARVGGGTTGYAFDIWGQGTMVTVSS
# VL: DIQMTQSPSSLSASVGDRVTITCRASQSISNYLNWYQQKPGKAPKLLIYGASSLQSGVPSRVSGTGSGTDFTLTISSLQPEDFATYYCQQSYSPSFTFGPGTKVDFER
# How the values were obtained:
# [1] = molecular target: T1, human Notch3 on the cell surface (human, UniProt Q9UM47 40-2321); experiment: cell-based or functional assay
# [2] = molecular target: T2, recombinant human Notch3 extracellular domain (containing EGF like domains 1-11) Fc fusion protein (human, UniProt Q9UM47 40-467); experiment: SPR (Biacore T100), antibody captured by goat anti-human IgG, rhNotch3-Fc injected, 25° C.
# T2 construct: Bought from R&D Systems; also called rhNotch3-Fc; Notch3-Fc; not shown: Fc of the bought fusion protein
# T2 sequence: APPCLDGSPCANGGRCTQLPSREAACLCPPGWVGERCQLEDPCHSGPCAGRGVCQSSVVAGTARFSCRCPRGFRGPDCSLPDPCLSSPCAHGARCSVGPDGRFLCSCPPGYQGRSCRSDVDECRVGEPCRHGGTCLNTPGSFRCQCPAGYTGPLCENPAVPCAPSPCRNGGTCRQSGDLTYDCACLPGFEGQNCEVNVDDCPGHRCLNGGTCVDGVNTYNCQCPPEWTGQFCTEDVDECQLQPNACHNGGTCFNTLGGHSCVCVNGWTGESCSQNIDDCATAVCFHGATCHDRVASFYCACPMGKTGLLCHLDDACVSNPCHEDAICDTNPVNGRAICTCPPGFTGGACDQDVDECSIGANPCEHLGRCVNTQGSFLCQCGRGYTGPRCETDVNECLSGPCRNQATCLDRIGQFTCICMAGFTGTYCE
# Procedure: (§1) Goat anti-human IgG is immobilized on carboxymethylated dextran CM4 sensor chips (GE Healthcare) by amine coupling, according to a standard protocol. Analyses are performed at 25° C. and 37° C. using PBS containing 0.05% surfactant P20 as running buffer. The antibody is captured in individual flow cells at a flow rate of 10 μl/minute. Injection time is varied for each antibody to yield an R max between 30 and 60 resonance units (RU). 250 μg/mL human IgG Fc is injected to block non-specific binding of Fc (from the Notch3 fusion protein) to the capture antibody. Buffer or rhNotch3-Fc diluted in running buffer is injected sequentially over a reference surface (no antibody captured) and the active surface (antibody to be tested) for 240 seconds at 60 μL/minute. The dissociation phase is monitored for up to 1500 seconds. The surface is then regenerated with two 60-second injections of 10 mM Glycine-HCl, pH 2.25, at a flow rate of 30 μL/minute. The rhNotch3-Fc concentration range tested is 100 nM to 3.125 nM (2 fold dilution).
# (§2) Kinetic parameters can be determined using the kinetic function of the BIAevaluation software (GE Healthcare) with double reference subtraction. Kinetic parameters for the antibody, kₐ (association rate constant), kd (dissociation rate constant) and KD (equilibrium dissociation constant) are determined.
# [3] = molecular target: T2, recombinant human Notch3 extracellular …; experiment: SPR (Biacore T100), antibody captured by goat anti-human IgG, rhNotch3-Fc injected, 37° C.
# Procedure: as §1, §2
# cynoNotch3 monomer = molecular target: T3, cynoNotch3 monomer (cyno); experiment: binding to cynoNotch3 monomer at 25° C., protocol similar to that for hNotch3 (method not named)
# T3 construct: Only named as 'cynoNotch3 monomer'
# [4] = molecular target: T4, human Notch1 on the cell surface (human, UniProt P46531 19-2555); experiment: FACS on FlpIn CHO cells expressing full length human Notch1, anti-human PE secondary antibody
# T4 construct: whole, on cells; also called cell surface human Notch1; full length human Notch1
# Procedure: (§3) Full length Notch receptor cDNAs cloned into pcDNA5FRT were transfected into FlpIn™ CHO cells and selected with 600 μg/ml hygromycin (Sigma), according to the manufacturer's protocol. Cell surface expression of Notch receptors is confirmed by FACS analysis using anti-Notch1 PE, anti-Notch2 PE or anti-Notch3 PE control antibodies (Biolegend). […] FACS is performed on a BD FACSCanto II cell analyzer (BD Biosciences) and analyzed using FlowJo software.
# [5] = molecular target: T5, human Notch2 on the cell surface (human, UniProt Q04721 26-2471); experiment: FACS on FlpIn CHO cells expressing full length human Notch2, anti-human PE secondary antibody
# T5 construct: whole, on cells; also called cell surface human Notch2; full length human Notch2
# Procedure: as §3
# [6] = molecular target: T2, recombinant human Notch3 extracellular …; experiment: SPR (Biacore), 28042 captured as ligand, rhNotch3-Fc injected as sample, 25 C, 1:1 binding fit
# Procedure: (§4) Rabbit anti-mouse IgGs (GE Healthcare) are immobilized on carboxymethylated dextran CM4 sensor chips (GE Healthcare) by amine coupling, according to a standard protocol. Analyses are performed at 25° C. and 37° C. using PBS containing 0.05% surfactant P20 as running buffer. The antibody is captured in individual flow cells at a flow rate of 10 μL/minute. Injection time is varied for each antibody to yield an R max between 30 and 60 RU. 250 μg/mL human IgG Fc is injected to block non-specific binding of Fc (from the Notch3 fusion protein) to the capture antibody. Buffer or rhNotch1-Fc (R&D Systems, Minneapolis, Minn.; Cat. No. 3647-TK-050), rhNotch2-Fc (R&D Cat. No. 3735-NT-050), and rhNotch3-Fc (R&D Cat. No. 1559-NT-050), diluted in running buffer is injected sequentially over a reference surface (no antibody captured) and the active surface (antibody to be tested) for 240 seconds at 60 μL/minute. The dissociation phase is monitored for up to 1500 seconds. The surface is then regenerated with two 60-second injections of 10 mM Glycine-HCl, pH 2.25, at a flow rate of 30 μL/minute. The rhNotch3-Fc, rhNotch2-Fc, and rhNotch1-Fc concentration range tested are 100 nM to 3.125 nM (2 fold dilution).
# [7] = molecular target: T1, human Notch3 on the cell surface; experiment: FACS at 4° C. on cells expressing human Notch3, one site binding fit; cell line not stated
# Description: CHO N3 (Flp-In-CHO cells (Invitrogen) stably transfected with human Notch3), HCC2429 cells, and RL-952 cells expressing human Notch3 are washed once with PBS containing calcium chloride and magnesium chloride (Invitrogen) and harvested using cell dissociation buffer (Invitrogen). Cells are washed a second time with PBS and resuspended in FACS buffer (PBS with 0.5% BSA (Sigma-Aldrich)) for a final cell concentration of 250,000 cells per well into a 96-well v-bottom plate. Purified antibodies are diluted in FACS buffer over a concentration range of 100 nM to 0 nM. Cells are then incubated at 4° C. with 100 μL of antibody for one hour, washed with FACS buffer twice, and resuspended in 100 μL of goat-anti mouse PE-conjugated antibody (Jackson Immuno Research). Cells are incubated at 4° C. for 30 minutes in the dark, washed once with FACS buffer, and then analyzed using a Beckman Coulter Cytomics FC 500 instrument. The geometric mean of the florescent intensity then is calculated for each antibody concentration. These values then are entered into Prism software (GraphPad, La Jolla, Calif.) and used to generate a binding curve by plotting geometric mean versus antibody concentration.
# [8] = molecular target: T6, murine Notch3 on the cell surface (murine, UniProt Q61982 40-2318); experiment: FACS on FlpIn CHO cells expressing full length murine Notch3, 5 ug/ml antibody, anti-human PE secondary antibody
# T6 construct: whole, on cells; also called mNotch3; full length murine Notch3
# T6 sequence (Q61982 40-2318): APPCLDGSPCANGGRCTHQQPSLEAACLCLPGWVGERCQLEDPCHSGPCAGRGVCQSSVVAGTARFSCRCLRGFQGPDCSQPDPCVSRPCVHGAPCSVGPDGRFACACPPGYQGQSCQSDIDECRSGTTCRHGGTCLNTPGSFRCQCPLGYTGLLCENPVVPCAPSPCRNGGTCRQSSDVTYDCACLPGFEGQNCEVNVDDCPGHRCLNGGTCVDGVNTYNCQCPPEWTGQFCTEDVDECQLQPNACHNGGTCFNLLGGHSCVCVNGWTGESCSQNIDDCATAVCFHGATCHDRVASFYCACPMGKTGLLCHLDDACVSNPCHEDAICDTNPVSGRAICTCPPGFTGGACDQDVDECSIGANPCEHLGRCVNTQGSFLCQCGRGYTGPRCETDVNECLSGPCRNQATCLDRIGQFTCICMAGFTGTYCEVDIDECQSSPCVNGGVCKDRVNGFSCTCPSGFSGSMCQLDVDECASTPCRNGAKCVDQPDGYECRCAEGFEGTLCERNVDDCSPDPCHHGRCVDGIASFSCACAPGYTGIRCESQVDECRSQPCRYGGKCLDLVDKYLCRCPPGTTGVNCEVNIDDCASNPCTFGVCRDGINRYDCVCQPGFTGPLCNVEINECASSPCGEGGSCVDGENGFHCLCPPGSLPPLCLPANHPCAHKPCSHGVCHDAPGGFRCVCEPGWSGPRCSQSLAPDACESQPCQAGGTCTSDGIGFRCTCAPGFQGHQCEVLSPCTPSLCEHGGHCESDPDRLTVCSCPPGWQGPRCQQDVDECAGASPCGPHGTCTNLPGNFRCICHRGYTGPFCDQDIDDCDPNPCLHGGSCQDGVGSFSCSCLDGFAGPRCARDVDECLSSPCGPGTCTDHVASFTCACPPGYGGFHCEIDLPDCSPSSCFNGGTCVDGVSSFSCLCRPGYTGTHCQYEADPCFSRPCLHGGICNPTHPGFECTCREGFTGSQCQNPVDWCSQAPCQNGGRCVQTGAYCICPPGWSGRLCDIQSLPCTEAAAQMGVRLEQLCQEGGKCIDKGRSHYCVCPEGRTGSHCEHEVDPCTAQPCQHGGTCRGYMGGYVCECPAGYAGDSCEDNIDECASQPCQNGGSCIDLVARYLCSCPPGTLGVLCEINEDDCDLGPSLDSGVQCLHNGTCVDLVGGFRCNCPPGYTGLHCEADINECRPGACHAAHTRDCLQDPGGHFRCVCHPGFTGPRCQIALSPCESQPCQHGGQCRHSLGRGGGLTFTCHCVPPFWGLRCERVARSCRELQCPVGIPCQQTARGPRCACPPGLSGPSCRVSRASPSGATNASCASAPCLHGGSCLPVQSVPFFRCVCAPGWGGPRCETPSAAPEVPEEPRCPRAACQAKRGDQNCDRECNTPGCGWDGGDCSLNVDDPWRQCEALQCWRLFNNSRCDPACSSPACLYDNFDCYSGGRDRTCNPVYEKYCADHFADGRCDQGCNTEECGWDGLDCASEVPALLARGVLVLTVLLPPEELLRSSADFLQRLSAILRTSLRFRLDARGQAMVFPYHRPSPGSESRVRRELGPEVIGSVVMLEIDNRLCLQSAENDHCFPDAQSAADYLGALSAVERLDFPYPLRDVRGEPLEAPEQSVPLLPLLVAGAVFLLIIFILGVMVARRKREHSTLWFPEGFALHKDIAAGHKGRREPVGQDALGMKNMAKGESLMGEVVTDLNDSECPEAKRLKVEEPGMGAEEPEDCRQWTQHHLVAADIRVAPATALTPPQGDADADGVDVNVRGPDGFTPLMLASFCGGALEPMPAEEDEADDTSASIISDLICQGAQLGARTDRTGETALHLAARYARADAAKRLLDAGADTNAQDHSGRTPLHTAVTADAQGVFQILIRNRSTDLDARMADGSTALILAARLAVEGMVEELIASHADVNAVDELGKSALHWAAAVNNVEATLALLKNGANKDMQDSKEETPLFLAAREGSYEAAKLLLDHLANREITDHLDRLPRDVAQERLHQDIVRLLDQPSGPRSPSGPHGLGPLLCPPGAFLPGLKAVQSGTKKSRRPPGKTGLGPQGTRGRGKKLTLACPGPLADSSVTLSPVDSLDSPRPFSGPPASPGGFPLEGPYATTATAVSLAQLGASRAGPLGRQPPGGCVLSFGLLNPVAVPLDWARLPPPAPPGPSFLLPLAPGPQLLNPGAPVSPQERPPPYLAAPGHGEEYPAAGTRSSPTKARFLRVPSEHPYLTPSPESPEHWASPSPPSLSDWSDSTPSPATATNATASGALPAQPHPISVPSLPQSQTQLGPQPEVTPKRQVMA
# Procedure: as §3
# [9] = molecular target: T2, recombinant human Notch3 extracellular …; experiment: SPR (Biacore), 28042 captured as ligand, rhNotch3-Fc injected as sample, 25 C, 1:1 binding fit; the same fit is printed under the Notch3 sensorgram as ka 2.720E+5
# Procedure: as §4
# [10] = molecular target: T2, recombinant human Notch3 extracellular …; experiment: SPR (Biacore), 28042 captured as ligand, rhNotch3-Fc injected as sample, 25 C, 1:1 binding fit; the same fit is printed under the Notch3 sensorgram as kd 2.580E-4
# Procedure: as §4
# rhNotch1-Fc = molecular target: T7, rhNotch1-Fc (human, UniProt P46531 19-1735); experiment: SPR (Biacore), 28042 captured as ligand, rhNotch1-Fc as sample, 25 C; software 1:1 fit printed under a sensorgram that stays below about 1.5; the drawn table gives '-' for this pair
# T7 construct: extracellular domain; Bought from R&D Systems; also called R&D Cat. No. 3647-TK-050; not shown: Fc of the bought fusion protein
# T7 sequence (P46531 19-1735): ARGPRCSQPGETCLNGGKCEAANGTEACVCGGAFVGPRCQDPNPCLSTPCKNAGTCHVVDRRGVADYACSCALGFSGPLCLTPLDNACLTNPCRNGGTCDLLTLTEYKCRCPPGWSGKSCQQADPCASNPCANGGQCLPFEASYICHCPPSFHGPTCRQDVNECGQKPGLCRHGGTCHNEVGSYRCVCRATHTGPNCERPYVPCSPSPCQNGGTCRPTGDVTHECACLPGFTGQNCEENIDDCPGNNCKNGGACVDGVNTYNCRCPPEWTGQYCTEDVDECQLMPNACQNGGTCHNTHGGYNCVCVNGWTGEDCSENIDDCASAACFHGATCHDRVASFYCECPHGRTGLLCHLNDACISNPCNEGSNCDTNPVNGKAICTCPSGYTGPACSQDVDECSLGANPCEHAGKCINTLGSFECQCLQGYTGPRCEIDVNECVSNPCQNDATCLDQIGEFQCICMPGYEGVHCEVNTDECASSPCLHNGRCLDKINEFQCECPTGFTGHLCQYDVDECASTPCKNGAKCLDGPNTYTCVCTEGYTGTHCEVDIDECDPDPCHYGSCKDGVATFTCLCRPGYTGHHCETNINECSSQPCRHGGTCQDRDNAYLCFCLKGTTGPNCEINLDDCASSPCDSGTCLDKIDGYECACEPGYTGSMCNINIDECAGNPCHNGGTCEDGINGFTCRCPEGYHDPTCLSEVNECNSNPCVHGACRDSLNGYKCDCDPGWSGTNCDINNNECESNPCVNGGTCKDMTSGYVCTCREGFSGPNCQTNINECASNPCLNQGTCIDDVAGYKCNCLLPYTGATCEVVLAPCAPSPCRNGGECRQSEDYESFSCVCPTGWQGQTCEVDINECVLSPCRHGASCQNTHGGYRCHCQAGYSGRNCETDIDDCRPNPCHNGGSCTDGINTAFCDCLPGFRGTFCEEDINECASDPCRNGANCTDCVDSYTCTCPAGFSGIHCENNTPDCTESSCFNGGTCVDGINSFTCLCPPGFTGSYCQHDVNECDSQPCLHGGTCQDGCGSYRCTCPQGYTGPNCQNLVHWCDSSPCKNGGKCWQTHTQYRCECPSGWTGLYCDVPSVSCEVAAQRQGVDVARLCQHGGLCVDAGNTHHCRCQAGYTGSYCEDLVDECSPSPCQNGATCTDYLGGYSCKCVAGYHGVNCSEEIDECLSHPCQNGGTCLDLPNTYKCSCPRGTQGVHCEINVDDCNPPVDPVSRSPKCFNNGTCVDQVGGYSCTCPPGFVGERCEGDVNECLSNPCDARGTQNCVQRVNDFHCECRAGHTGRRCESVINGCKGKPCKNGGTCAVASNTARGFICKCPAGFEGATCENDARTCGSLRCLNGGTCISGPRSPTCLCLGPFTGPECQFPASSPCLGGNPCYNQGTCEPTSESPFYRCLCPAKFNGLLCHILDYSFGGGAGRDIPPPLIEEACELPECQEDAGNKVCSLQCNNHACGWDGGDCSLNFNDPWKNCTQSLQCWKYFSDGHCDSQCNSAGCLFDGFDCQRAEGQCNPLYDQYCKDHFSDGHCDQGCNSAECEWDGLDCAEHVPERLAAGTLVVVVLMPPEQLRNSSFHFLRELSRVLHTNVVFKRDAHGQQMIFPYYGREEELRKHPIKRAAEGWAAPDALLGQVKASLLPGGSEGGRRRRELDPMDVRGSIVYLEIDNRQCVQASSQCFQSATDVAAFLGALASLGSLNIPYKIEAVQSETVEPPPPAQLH
# Procedure: as §4
binder,measurement,setting,value
B1,IC50; % inhibition of hJag2-mFc-stimulated RBP-Jk luciferase reporter activity in MDA-MB-468 cells with endogenous human Notch3,[1],0.53 ug/ml (unit taken from the x axis 'log (ug/ml)'; the table prints none)
same,LogIC50; same reporter assay,[1],-0.276 log (ug/ml)
same,Kd,[2],2.55 nM
same,koff,[2],0.000299 s⁻¹
same,kon,[2],177000 M⁻¹ s⁻¹
same,Kd,[3],4.18 nM
same,koff,[3],0.000396 s⁻¹
same,kon,[3],94700 M⁻¹ s⁻¹
same,Kd,cynoNotch3 monomer,806 nM
same,binding result,[4],no binding
same,binding result,[5],no binding
same,Kd,[6],0.948 nM
same,Kd,[7],2.72 nM
same,binding result,[8],binds
same,kon,[9],272000 M⁻¹ s⁻¹
same,koff,[10],0.000258 s⁻¹
same,koff,rhNotch1-Fc,0.000313 s⁻¹
same,kon,rhNotch1-Fc,104000 M⁻¹ s⁻¹
